{"source": "paper PMC5581011", "key": {"[1]": {"biological_target": "farletuzumab, humanized IgG1 monoclonal antibody to folate receptor alpha (human (humanized IgG1))", "sequence (heavy, as listed by the source, chain 1 of 2)": "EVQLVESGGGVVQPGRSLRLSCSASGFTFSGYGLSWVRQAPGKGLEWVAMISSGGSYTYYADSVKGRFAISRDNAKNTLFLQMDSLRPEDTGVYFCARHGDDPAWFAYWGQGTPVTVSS", "sequence (light, as listed by the source, chain 2 of 2)": "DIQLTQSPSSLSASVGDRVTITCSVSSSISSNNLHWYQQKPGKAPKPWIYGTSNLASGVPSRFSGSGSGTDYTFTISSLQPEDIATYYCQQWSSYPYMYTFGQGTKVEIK", "assay": "ELISA; unlabeled farletuzumab incubated alone or with sCA125 or HSA, probed with biotinylated CD16a, CD32a or CD64a; percent inhibition of Fc receptor binding compared to control"}, "[2]": {"biological_target": "mesothelin on CHO-MSLN cells (UniProt Q13421)", "sequence (Q13421 other isoform, or with tags, fused parts or gaps)": "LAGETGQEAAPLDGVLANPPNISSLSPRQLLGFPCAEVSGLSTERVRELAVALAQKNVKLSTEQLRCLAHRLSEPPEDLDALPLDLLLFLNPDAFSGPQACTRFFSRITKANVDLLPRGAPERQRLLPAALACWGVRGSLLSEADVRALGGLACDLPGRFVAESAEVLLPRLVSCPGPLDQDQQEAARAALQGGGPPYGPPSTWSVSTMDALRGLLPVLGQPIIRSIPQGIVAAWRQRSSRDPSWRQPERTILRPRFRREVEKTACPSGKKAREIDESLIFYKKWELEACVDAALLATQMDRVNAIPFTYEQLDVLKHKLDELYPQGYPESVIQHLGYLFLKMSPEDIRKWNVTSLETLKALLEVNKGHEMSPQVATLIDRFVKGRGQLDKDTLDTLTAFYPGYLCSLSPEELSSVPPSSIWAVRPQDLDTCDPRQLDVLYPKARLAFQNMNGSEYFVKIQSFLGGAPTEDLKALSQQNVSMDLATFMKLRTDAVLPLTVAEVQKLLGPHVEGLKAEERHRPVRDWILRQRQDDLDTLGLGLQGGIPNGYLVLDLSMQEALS", "assay": "absorption (depletion) of sCA125 on cells; sCA125 preparation absorbed on CHO-MSLN cells or CHO-K1 parental cells; what is left in the supernatant"}, "[3]": {"biological_target": "farletuzumab, humanized IgG1 monoclonal antibody to folate receptor alpha (human (humanized IgG1))", "assay": "ELISA; unlabeled farletuzumab incubated alone or with sCA125 or HSA, probed with biotinylated CD16a, CD32a or CD64a; percent inhibition of Fc receptor binding compared to control", "remark": "listed apart in the source"}, "rituximab": {"biological_target": "rituximab", "assay": "ELISA; data not shown; rituximab and gimsilumab with sCA125, binding of CD16a-biotin"}, "gimsilumab (human)": {"biological_target": "gimsilumab (human)", "sequence (heavy, as listed by the source, chain 1 of 2)": "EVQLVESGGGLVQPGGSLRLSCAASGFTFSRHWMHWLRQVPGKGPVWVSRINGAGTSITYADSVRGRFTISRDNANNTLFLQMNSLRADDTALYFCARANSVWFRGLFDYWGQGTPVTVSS", "sequence (light, as listed by the source, chain 2 of 2)": "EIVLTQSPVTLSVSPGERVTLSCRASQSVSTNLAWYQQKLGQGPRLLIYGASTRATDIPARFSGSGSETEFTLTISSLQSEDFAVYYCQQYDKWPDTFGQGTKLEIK", "assay": "ELISA; data not shown; rituximab and gimsilumab with sCA125, binding of CD16a-biotin"}}, "note": "Where two headings read alike, the source gives them in different places.", "data": [{"substance": "soluble CA125 (sCA125), tumor-shed antigen CA125/MUC16 (from UniProt Q8WXI7 1-14507) (natural protein)", "values": [{"measurement": "percent inhibition of CD16a-biotin binding to farletuzumab", "setting": "[1]", "value": "38 to 50", "unit": "%"}, {"measurement": "percent of sCA125 removed by absorption on CHO-MSLN cells", "setting": "[2]", "value": 98, "unit": "%"}, {"measurement": "percent inhibition of CD16a-biotin binding to farletuzumab", "setting": "[3]", "value": 46, "unit": "%"}, {"measurement": "percent inhibition of CD32a-biotin binding to farletuzumab", "setting": "[3]", "value": 12, "unit": "%"}, {"measurement": "percent inhibition of CD16a-biotin binding to the antibody", "setting": "rituximab", "value": "< 50", "unit": "%"}, {"measurement": "percent inhibition of CD16a-biotin binding to the antibody", "setting": "gimsilumab (human)", "value": "< 50", "unit": "%"}]}]}
